Substitutions are numbered along the chain they refer to. Names may count otherwise. “Also recorded” adds a separate entry of the source.
B1: SEQ ID NO:41: amidohydrolase 2, Polaromonas sp. JS666 (protein, listed as Polaromonas sp.)
chain: MANGKIALEEHFATEETLMDSAGFVPDKDWPELRSRLLDIQDRRVRLMDEHGIETMILSLNAPAVQAIADSTRANETARRANDFLAEQVAKQPTRFRGFAALPMQDPELAARELERCVKELGFVGALVNGFSQDNRSAVPLYYDMAQYWPFWETVQALDVPFYLHPRNPLPSDARIYDGHAWLLGPTWAFGQETAVHALRLMGSGLFDKYPALKIILGHMGEGLPYSMWRIDHRNAWIKTTPKYPAKRKIVDYFNENFYLTTSGNFRTQTLIDAILEIGADRILFSTDWPFENIDHAADWFENTSISEADRKKIGWGNAQNLFKLNR
B2: SEQ ID NO:109: Design variant of SEQ ID NO: 1; designed mutation N235V (protein)
chain: MAQGKVALEEHFAIPETLQDSAGFVPGDYWKELQHRLLDIQDTRLKLMDAHGIETMILSLNAPAVQAIPDRRKAIEIARRANDVLAEECAKRPDRFLAFAALPLQDPDAATEELQRCVNDLGFVGALVNGFSQEGDGQTPLYYDLPQYRPFWGEVEKLDVPFYLHPRNPLPQDSRIYDGHPWLLGPTWAFAQETAVHALRLMASGLFDEHPRLNIILGHMGEGLPYMMWRIDHRVAWVKLPPRYPAKRRFMDYFNENFHITTSGNFRTQTLIDAILEIGADRILFSTDWPFENIDHASDWFNATSIAEADRVKIGRTNARRLFKLDGA
modifications: Dicamba decarboxylase variant clone DC.4.032
notes: designed mutation N235V
B3: N214Q: point mutation N214Q of SEQ ID NO:109 (protein)
chain: B2 chain with N214Q
modifications: Dicamba decarboxylase variant clone DC.4.032
B4: N61S: point mutation N61S of SEQ ID NO:109 (protein)
chain: B2 chain with N61S
modifications: Dicamba decarboxylase variant clone DC.4.032
B5: SEQ ID NO:110: Design variant of SEQ ID NO: 1 (protein)
chain: B2 chain with A22M, Q34M, V235M
modifications: Dicamba decarboxylase variant clone DC.4.111
B6: SEQ ID NO:113: Design variant of SEQ ID NO: 1 (protein)
chain: B2 chain with W30L, Q34F
modifications: Dicamba decarboxylase variant clone DC.4.114
B7: P63V: point mutation P63V of SEQ ID NO:109 (protein)
chain: B2 chain with P63V
modifications: Dicamba decarboxylase variant clone DC.4.032
B8: L240A: point mutation L240A of SEQ ID NO:109 (protein)
chain: B2 chain with L240A
modifications: Dicamba decarboxylase variant clone DC.4.032
B9: SEQ ID NO:111: Design variant of SEQ ID NO: 1 (protein)
chain: B2 chain with A22M, Q34M, V235M, V238I
modifications: Dicamba decarboxylase variant clone DC.4.112
B10: V235I: point mutation V235I of SEQ ID NO:109 (protein)
chain: B2 chain with V235I
modifications: Dicamba decarboxylase variant clone DC.4.032
B11: A64G: point mutation A64G of SEQ ID NO:109 (protein)
chain: B2 chain with A64G
modifications: Dicamba decarboxylase variant clone DC.4.032
B12: A64S: point mutation A64S of SEQ ID NO:109 (protein)
chain: B2 chain with A64S
modifications: Dicamba decarboxylase variant clone DC.4.032
B13: N61G: point mutation N61G of SEQ ID NO:109 (protein)
chain: B2 chain with N61G
modifications: Dicamba decarboxylase variant clone DC.4.032
B14: L240D: point mutation L240D of SEQ ID NO:109 (protein)
chain: B2 chain with L240D
modifications: Dicamba decarboxylase variant clone DC.4.032
B15: SEQ ID NO:112: Design variant of SEQ ID NO: 1 (protein)
chain: B2 chain with Q34V
modifications: Dicamba decarboxylase variant clone DC.4.113

Columns and labels:
[1] = 14C assay with purified protein (14CO2 captured on Ca(OH)2 filter paper); assay type: biochemical; conditions: [14C]-carboxyl-labeled dicamba
[2] = Detection of 4-chloro-3-methoxy phenol product by LC-MS/MS; assay type: biochemical; conditions: purified protein
Method: The decarboxylated and chloro hydrolyzed product, 4-chloro-3-methoxy phenol (FIG. 1D), is measured using a LC-MS/MS analytical procedure. […] 10 ul is removed from the reaction mixture and mixed with 90 ul pre-chilled methanol followed by centrifugation at 14,000 rpm for 15 min at 4° C. 10 ul of the supernatant is then transferred into 170 ul ddH2O to achieve 5% methanol solution for injection. 50 ul of the prepared sample is injected into a 4000 Q Trap LC-MS/MS system for sample analysis. LC-MS/MS parameters are: Mobile Phase A, 2 mM ammonium acetate in water; Mobile Phase B, 2 mM ammonium acetate in methanol; Column, Aquasil, 100×2.1 mm, 3 μm, C18 column; Flow Rate, 0.6 ml/min. The MS/MS fragment 157/142 which is common to 4-chloro-3-methoxy phenol, 2-chloro-5-methoxy phenol, and 3-chloro-5-methoxy phenol is monitored at a retention time of 2.88 min.

[3] = Detection of 2,5-DCP product by GC/MS; assay type: biochemical; conditions: purified protein
Method: The decarboxylated and demethylated product of dicamba, 2,5-dichloro phenol or 2,5-DCP (FIG. 1E) is measured using a GC/MS analytical procedure with either liquid injection after liquid/liquid extraction using toluene as the extraction solvent or gas injection using head space method. The head space sample analysis is carried out on an Agilent GC/MS system with a 6890A GC, a 5973N MSD and a CTC CombiPAL auto-sampler or with a 7890A GC, a 5975C MSD and an Agilent GC Sampler 80 auto-sampler with Phenomenex ZB-MultiResidue-1 column (30 m length, 0.25 mm diameter, 0.25 um film) or equivalent. GC/MS parameters are: GC inlet temperature, 200° C.; Carry gas, helium in constant flow mode (1.2 mL/min); Oven temperature program, 70° C. for 1 min and then ramp to 275° C. at 40° C./min. […] The reaction vial is transferred to a agitator for incubation at 90° C. for 4 min at 500 rpm. With a syringe preheated at 110° C., 1000 uL of head space is injected with sample fill speed at 100 uL/sec. A 2-mm diameter liner is used in sample inlet. The MS data acquisition is done in SIM (selected ion monitoring) mode. The positive ion at M/Z 162 for the molecular ion of 2,-5-DCP is monitored at retention time of 4.06 min. Solvent delay for MS acquisition is set at 3 min. GC/MS parameters for liquid sample analysis are the same as those for head space analysis, except that the volume of liquid injection is 1 uL.

[4] = Dicamba decarboxylation activity of computationally designed protein variants; conditions: native protein or designed variant versus parent
[5] = 14C assay with IPTG-induced recombinant E. coli cells (14CO2 capture from [14C]-carboxyl-labeled dicamba); conditions: E. coli cell assay, 108 sequences tested
[6] = Saturation mutagenesis of SEQ ID NO:109, dicamba decarboxylation activity of point mutants
[7] = dicamba decarboxylation activity of point mutants of SEQ ID NO: 109 (NNK saturation mutagenesis), relative to the unchanged template
[8] = dicamba decarboxylation activity of single point mutants of SEQ ID NO:109, relative to unchanged template

| Molecule | CO2 product [1] | 4-chloro-3-methoxy phenol product [2] | 2,5-DCP product [3] | Dicamba Decarboxylase Activity [4] | decarboxylation activity of dicamba [5] | Average Activity (Fold of SEQ ID NO: 109) [6, 7] | Average Activity (Fold of SEQ ID NO: 109) [6, 8] |
| --- | --- | --- | --- | --- | --- | --- | --- |
| B1 | detected | detected | detected | native dicamba decarboxylase activity | showed decarboxylation activity of dicamba | – | – |
| B2 | detected | detected | detected | more active than their parent sequence; also recorded: displays an increase in dicamba decarboxylase activity | – | – | – |
| B3 | – | – | – | – | – | 1.8 Fold of SEQ ID NO: 109 | 1.8 Fold of SEQ ID NO: 109 |
| B4 | – | – | – | – | – | 2.5 Fold of SEQ ID NO: 109 | 2.5 Fold of SEQ ID NO: 109 |
| B5 | detected | detected | detected | displays an increase in dicamba decarboxylase activity | – | – | – |
| B6 | detected | detected | detected | displays an increase in dicamba decarboxylase activity | – | – | – |
| B7 | – | – | – | – | – | 1.8 Fold of SEQ ID NO: 109 | – |
| B8 | – | – | – | – | – | 2.3 Fold of SEQ ID NO: 109 | – |
| B9 | detected | detected | detected | displays an increase in dicamba decarboxylase activity | – | – | – |
| B10 | – | – | – | – | – | 1.8 Fold of SEQ ID NO: 109 | 1.8 Fold of SEQ ID NO: 109 |
| B11 | – | – | – | – | – | 2.6 Fold of SEQ ID NO: 109 | 2.6 Fold of SEQ ID NO: 109 |
| B12 | – | – | – | – | – | 2.1 Fold of SEQ ID NO: 109 | – |
| B13 | – | – | – | – | – | 2.3 Fold of SEQ ID NO: 109 | – |
| B14 | – | – | – | – | – | 2.2 Fold of SEQ ID NO: 109 | – |
| B15 | detected | detected | detected | displays an increase in dicamba decarboxylase activity | – | – | – |

From patent publication US20140287419A1, “Compositions Having Dicamba Decarboxylase Activity and Methods of Use” (priority 2013, published 2014)
